± gives the standard error. Variants at the floor of the assay were thinned out.
B1: glmS ribozyme (parent)
chain: AUAAAAGCGCCAGAACUACAGAAAUGUAGUUGACGAGGAGGAGGUUUAUCGAAUUUUCGGCGGAUGCCUCCAAA

Legend:
Conditions in all cases: with glucosamine-6-phosphate
[1] = variants of: B1; test: self-cleavage kobs at 640 uM GlcN6P; higher = faster cleavage; RNA array
Summary of the method: (§1)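 Ribozyme variants carrying barcodes were transcribed in situ on sequenced MiSeq chips by E. coli RNA polymerase and tracked at 37 °C with a hybridised Cy3 probe. They were exposed to 40 μM to 10 mM glucosamine-6-phosphate in HEPES/KCl/Mg(OAc)2 buffer. kobs came from exponential decay fits of normalised per-tile medians, and kcat and KM from weighted Michaelis–Menten fits.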

[2] = variants of: B1; test: self-cleavage kobs at 2500 uM GlcN6P; higher = faster cleavage; RNA array
Summary of the method: as §1

[3] = variants of: B1; test: self-cleavage kobs at 10000 uM GlcN6P; higher = faster cleavage; RNA array
Summary of the method: as §1

Variant: AUAAAAGCGCCAGAACUACAGAAAUGUAGUUGGCGAGGAGGAGGUUUAUCGGAUUUUCGGCGGAGGCCUCCAAA
- self-cleavage kobs at 640 uM GlcN6P [1]: < 1e-05 s⁻¹
- self-cleavage kobs at 2500 uM GlcN6P [2]: < 1e-05 s⁻¹

Variant: AUAAAAUCGCCAGAACUACAGAAAUGUAGUUGACGAGGAGGAGGUUUAGCCAAUUUUCGGCGGCUCCCUCCAAA
- self-cleavage kobs at 640 uM GlcN6P [1]: < 1e-05 s⁻¹
- self-cleavage kobs at 2500 uM GlcN6P [2]: < 1e-05 s⁻¹

Variant: AUAAAAGCGCCUGAGCUACAGAAAUGUAGUUGACGAGGAGAAGGUUUAUCGAAUUUUCGGAGGAUGCCUCCAAA
- self-cleavage kobs at 640 uM GlcN6P [1]: < 1e-05 s⁻¹

Variant: AUAAAAGCGUCAGAACUACAGAAAUGUAGUUCACAAGGAGGAGGUUUAUCGAAUUUUCGGCGGAUGCCUCCAAA
- self-cleavage kobs at 640 uM GlcN6P [1]: < 1e-05 s⁻¹
- self-cleavage kobs at 2500 uM GlcN6P [2]: < 1e-05 s⁻¹

Variant: AUAAAAGCGCCAGAACUACAGAAAUGUAGUUGACUAGGAGGAGGUUUAUCAAAUUUUCGGCGAAUGACUCCAAA
- self-cleavage kobs at 640 uM GlcN6P [1]: < 1e-05 s⁻¹
- self-cleavage kobs at 2500 uM GlcN6P [2]: < 1e-05 s⁻¹

Variant: AUAAAAGCGCCAGACCUACAGAAAUGUAGUUGACUAGGAGAAGGUUUAUCGAAUUUUCGGCGGACGCAUCCAAA
- self-cleavage kobs at 640 uM GlcN6P [1]: < 1e-05 s⁻¹
- self-cleavage kobs at 2500 uM GlcN6P [2]: < 1e-05 s⁻¹

Variant: AUAAAAGCGCCAGAACUACAGAAAUGUAGUAGACGAGGAGGACGGUUAUCGUAUUUUCGGCGGAUGCCUUCAAA
- self-cleavage kobs at 640 uM GlcN6P [1]: < 1e-05 s⁻¹

Variant: AUAAAUGCGUCAGAACUACAGAAAUGUAGUUCACGAGGAGGAGGUUUAUCGAAUUUUCGGCGGAUGCCUCCAAA
- self-cleavage kobs at 640 uM GlcN6P [1]: < 1e-05 s⁻¹

Variant: AUAAAAGCGCCGGAACUACAGAAAUGUAGUUGACGAGGAGGAGGUUUAUCGAAAUUUCGGCGGAUGCCUCCAAA
- self-cleavage kobs at 640 uM GlcN6P [1]: 0.000125 ± 2.3e-05 s⁻¹
- self-cleavage kobs at 2500 uM GlcN6P [2]: 0.000221 ± 4.5e-05 s⁻¹
- self-cleavage kobs at 10000 uM GlcN6P [3]: 0.000878 ± 0.00013 s⁻¹

Variant: AUAAAGGCGCCAGAACUACAGAAAUGUAGUUGACGGGGAGAAGGUUUAUCGAAUUUUCGGCGGAUGCCUCCAAA
- self-cleavage kobs at 640 uM GlcN6P [1]: < 1e-05 s⁻¹
- self-cleavage kobs at 10000 uM GlcN6P [3]: < 1e-05 s⁻¹

Variant: AUAAAAGCGCCAGCACUACAGAAAUGUAGUUGACGAGGAGGAGGUUUAUCGAAUUUUCGGCGGAUGCCCCUAAA
- self-cleavage kobs at 640 uM GlcN6P [1]: 4.76e-05 ± 8.5e-06 s⁻¹
- self-cleavage kobs at 2500 uM GlcN6P [2]: 0.000131 ± 1.4e-05 s⁻¹

Variant: AUAAAAGCGCCAGAACUACAGAAAUGUAGUUGACGAGGAGGAGGUUUUACGAAUUUUCGGCGGAUGCAUCCAAA
- self-cleavage kobs at 640 uM GlcN6P [1]: < 1e-05 s⁻¹

Variant: AUAAAAGCGCCAGAACUACAGAAAUGUAGUCGACGAGGAGGAGGUUUGUCGAAUUUUCGACGGAUGCCUCCAAA
- self-cleavage kobs at 640 uM GlcN6P [1]: < 1e-05 s⁻¹
- self-cleavage kobs at 2500 uM GlcN6P [2]: < 1e-05 s⁻¹

Variant: AUAAAAACGCGAGAACUACAGAAAUGUAGUUGACGAGGAUGAGGUUUAUCGAAUUUUCGGCGGAUGCCUCCAAA
- self-cleavage kobs at 640 uM GlcN6P [1]: < 1e-05 s⁻¹

Variant: AUAAAAGCGCCAGUACUACAGAAAUGUAGUUGACAAGGAGGAGGUUUAUCGAAUUUUCGGCGGGUGCCUCCAAA
- self-cleavage kobs at 640 uM GlcN6P [1]: < 1e-05 s⁻¹

Variant: AUAAAUGCGCCAGAACUACAGAAAUGUAGUUGACGAAGAGGAGGUUUAUCGAAAUUUCGGCGGAUGCCUCCAAA
- self-cleavage kobs at 640 uM GlcN6P [1]: < 1e-05 s⁻¹

Variant: AUAAAAGCACCAGAACUACAGAAAUGUAGUUGACGAGGAGGAGGUUUAUCGAAUUUUCGGCUGAUUCCUCCAAA
- self-cleavage kobs at 640 uM GlcN6P [1]: < 1e-05 s⁻¹
- self-cleavage kobs at 2500 uM GlcN6P [2]: < 1e-05 s⁻¹

Variant: AUAAAAGCGCCAGAACUACAGAAAUGUAGUUGACGAGGAGGAGGUUUAUCGAAUAUUCGGCGUAUGCCUGCAAA
- self-cleavage kobs at 640 uM GlcN6P [1]: 6.74e-05 ± 2.6e-05 s⁻¹

Variant: AUAAAAGCGCCAGAACUACAGAAAUGUAGUUGACGCGGAGGAGGUGUAUCGAAAGUUCGGCGGAUGCCUCCAAA
- self-cleavage kobs at 640 uM GlcN6P [1]: < 1e-05 s⁻¹

Variant: AUAAAAGCGCCAGAACUACAGAAAUGUAGGUGACGAGGAGGAGGUUUAUCGAAUGUUCGGCGGAUGCUUCCAAA
- self-cleavage kobs at 640 uM GlcN6P [1]: 0.000548 ± 0.00014 s⁻¹
- self-cleavage kobs at 2500 uM GlcN6P [2]: 7.82e-05 ± 2.1e-05 s⁻¹

Variant: AUAAAAGCGCCAGAACUACAGAAAUGUAUUUGAUGAGGAGGAGGUUUAUGGAAUUUUCGGCGGAUGCCUUCAAA
- self-cleavage kobs at 640 uM GlcN6P [1]: 0.000136 ± 2.9e-05 s⁻¹
- self-cleavage kobs at 2500 uM GlcN6P [2]: 8.93e-05 ± 2.5e-05 s⁻¹

Variant: AUAAAAGCGCCAGUACUACAGAAAUGUAGUUGACGAGAAGGAGGUUUAUCGAGUUUUCGGCGGAUGCCUCCAAA
- self-cleavage kobs at 640 uM GlcN6P [1]: < 1e-05 s⁻¹

Variant: AUAAAUGCGCCAUAACUACAGAAAUGUAGUUGACGAUGAGGAGGUUUUUCGAAUUUUCGGCGGAUGCCGCCAAA
- self-cleavage kobs at 640 uM GlcN6P [1]: 9.26e-05 ± 2.7e-05 s⁻¹

Variant: AUAAAAGCGCCAGAACUACAGAAAUGUAGACAACGAGGAGGAGGUUUAUCGAAUUUUCGGCGGAUGCCUCCAAA
- self-cleavage kobs at 640 uM GlcN6P [1]: 6.3e-05 ± 1.6e-05 s⁻¹
- self-cleavage kobs at 2500 uM GlcN6P [2]: 0.000298 ± 5.8e-05 s⁻¹

From the supplement of paper PMC7125110
